In publication PMC9731694, “SRSF5‐Mediated Alternative Splicing of M Gene is Essential for Influenza A Virus Replication: A Host‐Directed Target Against Influenza Virus” (Advanced Science, 2022):

Target: T1, GST-U1A-His (human (amplified from A549 cells), UniProt P09012 1-282)
T1 construct: also called GST tagged U1A-His
Test: pull-down; GST pulldown: 300 ng purified SRSF5-Flag with 150 ng glutathione-bound GST-tagged protein, 300 µL, 1 h at 4 °C; 50 mM Tris pH 7.5, 200 mM NaCl, 10% glycerol, 0.5% Triton-X-100, RNaseA; blot with anti-Flag or anti-His
Conditions: both partners purified

T1 sequence (P09012 whole entry): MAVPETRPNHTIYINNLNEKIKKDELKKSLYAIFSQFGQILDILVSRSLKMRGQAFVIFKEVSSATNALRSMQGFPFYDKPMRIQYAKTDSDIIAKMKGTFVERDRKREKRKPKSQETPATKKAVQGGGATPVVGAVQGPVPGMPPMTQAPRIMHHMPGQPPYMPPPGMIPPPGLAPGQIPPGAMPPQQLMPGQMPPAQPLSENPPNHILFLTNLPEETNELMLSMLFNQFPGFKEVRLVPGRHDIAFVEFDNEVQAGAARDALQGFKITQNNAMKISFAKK

B1: purified recombinant SRSF5-Flag (natural protein, human, UniProt Q13243 1-272, looked up)
chain: MSGCRVFIGRLNPAAREKDVERFFKGYGRIRDIDLKRGFGFVEFEDPRDADDAVYELDGKELCSERVTIEHARARSRGGRGRGRYSDRFSSRRPRNDRRNAPPVRTENRLIVENLSSRVSWQDLKDFMRQAGEVTFADAHRPKLNEGVVEFASYGDLKNAIEKLSGKEINGRKIKLIEGSKRHSRSRSRSRSRTRSSSRSRSRSRSRSRKSYSRSRSRSRSRSRSKSRSVSRSPVPEKSQKRGSSSRSKSPASVDRQRSRSRSRSRSVDSGN
notes: also called hSRSF5-Flag; Flag-SRSF5
B1: binds.
